1 substance from PMC2804858 can be followed below.

This test deals with Mcm2-7 hexamer (budding yeast (endogenous in yeast extract) | budding yeast) (UniProt P29469). The test can be described thus: negative-stain electron microscopy.

One may read the stoichiometry N as a count of units in the complex or per binding partner. The substance “Mcm2-7 hexamer, P29469 1-868; P24279 1-971; P30665 1-933; P29496 1-775; P53091 1-1017; P38132 1-845” showed a stoichiometry N of 2 hexamers.
